# Reference: patent US10214741B2, “Methods and compositions for inhibiting retinopathy of prematurity” (University of Utah Research Foundation, priority 2014, dated 2019)
# B1: STAT3.shRNA2: lentivector-ve-cadherin STAT3.shRNA with the best knockdown; rat STAT3 (nucleic acid)
# chain: TGCTGTTGACAGTGAGCGAATCGTGGATCTGTTCAGAAACTAGTGAAGCCACAGATGTAGTTTCTGAACAGATCCACGATCTGCCTACTGCCTCGGA
# B2: luciferase.shRNA: control lentivector shRNA to the nonmammalian gene luciferase (nucleic acid)
# DNA: TGCTGTTGACAGTGAGCGAAATGTTTACTACACTCGGATATAGTGAAGCCACAGATGTATATCCGAGTGTAGTAAACATTCTGCCTACTGCCTCGGA
# B3: vascular endothelial growth factor A (protein)
# chain: APMAEGGGQNHHEVVKFMDVYQRSYCHPIETLVDIFQEYPDEIEYIFKPSCVPLMRCGGCCNDEGLECVPTEESNITMQIMRIKPHQGQHIGEMSFLQHNKCECRPKKDRARQENPCGPCSERRKHLFVQDPQTCKCSCKNTDSRCKARQLELNERTCRCDKPRR
# notes: growth factor used at 20 ng/mL to stimulate hRMVECs
# What was measured:
# macrophages = assay: Macrophages in rat ROP and ROP+SO models; type: in vivo; settings: 1 uL intravitreal
# Text: Activation of NADPH oxidase generally requires aggregation of a NOX isoform (NOX1-5, Duox1 or 2) with membrane bound p22phox; for NOX1-3 activation, aggregation with Rac1 and cytoplasmic subunits p47phox, p67phox or homologs is also required. Few studies address oxygen effects on NADPH oxidase regulated signaling in ROP or development. Studying NADPH oxidase in vivo is also complicated, because 1) of compensation from NOX isoforms or homologs, which differ in different tissues, and 2) most inhibitors are not specific. In this example, oxygen stresses were varied by using 3 different OIR models: ROP and ROP+SO models in rat and OIR model in mouse. NADPH oxidase-induced signaling in ECs was targeted by reducing leukocyte/macrophages, which generate ROS through NADPH oxidase, or with a transgenic mouse. In rat ROP and ROP+SO models, macrophages ˜75% (FIG. 7A) were reduced with 1 uL intravitreal clodronate). […] Macrophages have multiple effects on angiogenesis including through non-NADPH oxidase mechanisms, so a more specific method was used to study NADPH oxidase-related signaling. NOX 1, 2, 4 are known to be involved in pathologic retinal angiogenesis; NOX2 is in macrophages and ECs. Therefore p47phox−/− mice were used to reduce NADPH oxidase activation from NOX 1-3. […]
# rat ROP model = assay: Lectin-stained retinal flat mounts, IVNV and AVA, rat ROP model (rat 50/10 OIR model); type: in vivo; settings: 1 uL intravitreal, ROP model
# retina [1] = settings: long-term periocular treatment; cited from earlier work
# rMVECs = assay: Lentivirus transduction specificity (ve-cadherin promoter) in cultured cells; type: cell-based; settings: rMVECs vs rat MC-1s, 293T
# STAT3 = assay: Western blot of STAT3 in 293T cotransfected with Lenti-VE-cad-GFP-driven shRNA and plasmid expressing coding sequence; type: cell-based, rat; settings: 293Ts
# Text: The strategy can be similar to knockdown of MC-expressed VEGFA, except a ve-cadherin promoter to target ECs can be used. The ve-cadherin promoter recruits polymerase II to drive miR30 embedded shRNAs. […] For control, shRNA targeted to luciferase (luc.shRNA), a nonmammalian gene, was used. Into a plasmid DNA expressing a Flag-tagged wild type (wt) coding sequence (wt-cDNA) for EPOR or VEGFR2, point mutations in the cognate region of the cDNA can be introduced where the shRNA binds to render the cDNA resistant to RISC cleavage without changing the native amino acid sequence (mut-cDNA). Then cotransfect 293T cells with either VEGFR2.shRNA or EPOR.shRNA and respective wt-cDNA or mut-cDNA. Off target effects can be determined by western blots of Flag expression or from interferon-induced genes using BLOCK-iT RNAi Stress Response Control Kit (Invitrogen, CA). Groups can be: rat EPOR.shRNAs+rat EPOR-wt-cDNA, rat EPOR. shRNAs+rat EPOR-mut-cDNA, rat VEGFR2.shRNA+rat VEGFR2-wt-cDNA or rat VEGFR2.shRNA+rat VEGFR2-mut-cDNA. Luc.shRNA and no DNA transfection can be controls. For specificity (FIG. 14A), lentiviral transduction of rECs, rat MCs (rMC-1s), human ARPE can be tested.
# Using methods as in Example 5, 3 STAT3.shRNAs for knockdown in 293 Ts (FIG. 14D) were developed and tested. […]
# pSTAT3 = assay: IHC densitometry of pSTAT3 colabeled with lectin, p18 rat ROP model; type: in vivo; settings: injected at p10, 10^6 viral particles/inj, vs. luc.shRNA
# retina [2] = assay: TUNEL staining, retinal layer thickness, caspase 3 in retina, rat ROP model; type: in vivo; settings: compared with PBS
# Description: Whole eye globes were fixed in 4% PFA containing 10 mM sodium orthovanadate for 10 minutes. Corneas and lenses were removed, and posterior eyecups were fixed for another 15 minutes in 4% PFA, then incubated in 30% sucrose/PBS at 4° C. overnight, and mounted in optimal cutting temperature compound (Tissue-Tek; Electron Microscopy Sciences, Hatfield, Pa.). Cryosections (12 μm) were cut sequentially and stained for immunofluorescence analysis. Cryosections were incubated with rabbit anti-phosphorylated VEGFR2 (p-VEGFR2 at Y951; Santa Cruz Biotechnology, Santa Cruz, Calif.) overnight at 4° C. After washes, sections were incubated with AlexaFluor 405 conjugated goat anti-rabbit second antibody for p-VEGFR2 and lectin for 1 hour. Sections stained with only secondary antibody and DAPI were controls. […] For p-VEGFR2 in retinal vessels, the density of p-VEGFR2 colabeling with lectin-stained ECs of the primary vascular plexus at the junctions between avascular retina and vascular retina was measured with the threshold function of the Java-based imaging software (NIH). TUNEL-positive cells colabeled with tetramethylrhodamine red (TMR red) and diamino-2-phenylindole (DAPI) were counted in retinal sections imaged at ×4 magnification. Retinal thickness was measured from ganglion cell to ONL in DAPI-stained sections captured at ×40 magnification using Java-based imaging software (NIH). […]
# EPOR = EPOR expression in hRMVECs (qPCR, Western blot); type: cell-based, human; settings: overnight treatment, vs PBS
# Text: hRMVECs (Cell Systems, Kirkland, Wash.) were maintained in EGM-2 endothelial growth medium (Lonza, Walkers-ville, MD) supplemented with 5% fetal bovine serum. Cells of passage 3 to 5 were used for experiments. […]
# For siRNA transfection, hRMVECs at 70% confluency were transfected in six-well plates with siRNAs targeting human EPOR, VEGFR2, or STAT3 (Life Technologies, Carlsbad, Calif.) using Lipofectamine 2000 reagent (Invitrogen by Life Technologies, Carlsbad, Calif.). A silencer selective negative control siRNA was used as control.
# Total RNA of cells was extracted by TRI Reagent (Sigma-Aldrich, St. Louis, Mo.). For dissected retinas, total RNA was extracted using an RNeasy mini kit (Qiagen, Valencia, Calif.). RNA was quantified using a NanoDrop spectrophotometer (Thermo Fisher Scientific, Waltham, Mass.). cDNA was generated with the use of a high-capacity cDNA archive kit (Life Technologies, Carlsbad, Calif.). qPCR was performed on a Mastercycler ep realplex system (Eppendorf, Hauppauge, N.Y.) with the use of SYBR Green master mix (Roche Diagnostics, Indianapolis, Ind.) and primers synthesized by the core research facility of the University of Utah. Expression levels for VEGFA were normalized to the mean value of internal control β-actin. […]
# Dissected retinas and hRMVECs were lysed in radioimmunoprecipitation assay buffer with 1:100 protease inhibitors (Roche Diagnostics, Indianapolis, Ind.) and 2 mmol/L sodium orthovanadate and were homogenized and centrifuged at 13,000 rpm (15,700 g) for 10 minutes at 4° C. Total protein in the supernatant fluid was quantified by a bicinchoninic acid assay (Pierce BCA; Thermo Fisher Scientific, Waltham, Mass.). […] Blots were visualized, and the relative densities of bands were calculated as described herein, using gel analysis software (UN-SCAN-IT gel, version 6.1; Silk Scientific, Orem, Utah). Relative activities were calculated as the ratio of phosphorylated to total protein or to β-actin and are expressed as fold difference compared with control. At least six samples from each group were measured and analyzed.
molecule,measurement,setting,value
O=P(O)(O)C(Cl)(Cl)P(=O)(O)O [clodronate],reduction of macrophages,macrophages,~75%
same,AVA,rat ROP model,not AVA
same,IVNV,rat ROP model; vs. PBS,significantly reduced
CN(C)c1ccc(/C=C2\C(=O)Nc3ccccc32)cc1 [SU4312],retinal apoptosis,retina [1],no retinal apoptosis
B1,cell specificity of transduction,rMVECs,showed specificity for rat MVECs
same,STAT3 knockdown among 3 STAT3.shRNAs,STAT3,best knockdown
same,pSTAT3/STAT3 colabeling with lectin,pSTAT3,STAT3-lectin colabeling was reduced
same,pSTAT3/STAT3 colabeling with lectin,pSTAT3; listed as STAT3.shRNA,reduced
B2,TUNEL+ cells,retina [2],increased TUNEL+ cells at P18 but not at P25
same,"thickness of the retina, INL or ONL",retina [2],did not alter the thickness of the retina
B3,EPOR protein,EPOR; 20 ng/mL VEGFA or 10 IU/mL EPO,increased EPOR mRNA expression (FIG. 35A) and protein levels
same,EPOR mRNA expression,EPOR,increased EPOR mRNA expression
